Results on 1 substance are retold here after article PMC3404065.

The Kd is the concentration at which binding is half-saturated. The term stoichiometry N denotes the number of molecules, sites or subunits per partner or assembly.

Assay [1] deals with F-actin polymerised from purified G-actin (Cytoskeleton APHL99-A) (UniProt P60709). Nature of the assay: co-sedimentation; supernatant-depletion method, equilibrium binding to ADP-F-actin (filaments from ADP-G-actin made with 20 U/mL hexokinase and 1 mM glucose); GST-ABD left in the supernatant by anti-GST immunoblot and densitometry. A general note: In western blotting, separated proteins are transferred to a membrane and probed.

Assay [2] shares this target. Nature of the assay: co-sedimentation; high-speed F-actin co-sedimentation; F-actin polymerised from Mg-ATP-G-actin (50 mM KCl, 1 mM MgCl2, 1 mM ATP); 30 min at room temperature, Airfuge ~100,000 x g 30 min; supernatant and pellet on SDS-PAGE, Coomassie Blue or silver stain.
Assay [3] shares this target. Nature of the assay: co-sedimentation; supernatant-depletion method, equilibrium binding to ATP/ADP-Pi-F-actin (filaments from ATP-G-actin); GST-ABD left in the supernatant by anti-GST immunoblot and densitometry; room temperature.

With “GST-TEM4 81-135 (GST-ABD) (from UniProt Q96PE2 81-135) (domain or fragment)”, the Kd in assay [1] was found to be 4700 nM; in assay [3], 53 nM. Also, the stoichiometry N was determined as 1.4 in assay [2] (scale: actin per GST-ABD) and 1 in assay [2] (scale: ratio GST-ABD to actin, after correction for the 15-20% GST cleavage product).
